Sequences and labels used below:
B1: IL6R-2B002/IL6R-L (antibody, human IgG1)
heavy: QVQLQESGPGLVKPSETLSLTCAVSGHSISHDHAWSWVRQPPGEGLEWIGFISYSGITNYNPSLQGRVTISRDNSKNTLYLQMNSLRAEDTAVYYCARSLARTTAMDYWGEGTLVTVSSASTKGPSVFPLAPSSKSTSGGTAALGCLVKDYFPEPVTVSWNSGALTSGVHTFPAVLQSSGLYSLSSVVTVPSSSLGTQTYICNVNHKPSNTKVDKKVEPKSCDKTHTCPPCPAPDLLGGDSVFLFPPKPKDTLMISRTPEVTCVVVDVSHEDPEVKFNWYVDGVEVHNAKTKPREEQYNSTYRVVSVLTVLHQDWLNGKEYKCKVSNKALPAPIEKTISKAKGQPREPQVYTLPPSRDELTKNQVSLTCLVKGFYPSDIAVEWESNGQPENNYKTTPPVLDSDGSFFLYSKLTVDKSRWQQGNVFSCSVMHEALHNHYTQESLSLSP
light: DIQMTQSPSSLSASVGDRVTITCRASQDISSYLNWYQQKPGKAPKLLIYYTSRLHSGVPSRFSGSGSGTDFTFTISSLQPEDIATYYCQQGNTLPYTFGQGTKVEIK
notes: IgG1; Fc variant of IL6R-B3; copies: 2 + 2
B2: IL6R-BP136/IL6R-L (antibody, human IgG1)
heavy: B1 heavy with D235E, K328A
light: B1 light
notes: as for B1
B3: IL6R-BP142/IL6R-L (antibody, human IgG1)
heavy: B1 heavy with D235E, K328N
light: B1 light
notes: as for B1
B4: IL6R-BP145/IL6R-L (antibody, human IgG1)
heavy: B1 heavy with D235E, L236Y, G239D
light: B1 light
B5: IL6R-BP144/IL6R-L (antibody, human IgG1)
heavy: B1 heavy with D235E, G239D, K328A
light: B1 light
B6: IL6R-BP088/IL6R-L (antibody, human IgG1)
heavy: B1 heavy with D235E, G239D, K328A, A332K
light: B1 light
B7: IL6R-BP181/IL6R-L (antibody, human IgG1)
heavy: B1 heavy with P273G, K328A, A332K
light: B1 light
B8: IL6R-BP129/IL6R-L (antibody, human IgG1)
heavy: B1 heavy with Y298D, A332K
light: B1 light
B9: IL6R-BP176/IL6R-L (antibody, human IgG1)
heavy: B1 heavy with K328D, A332K
light: B1 light
B10: IL6R-BP089/IL6R-L (antibody, human IgG1)
heavy: B1 heavy with D235E, L236Y, K328A, A332K
light: B1 light
B11: IL6R-BP148/IL6R-L (antibody, human IgG1)
heavy: B1 heavy with L236Y, G239D, K328A, A332K
light: B1 light
B12: IL6R-BP132/IL6R-L (antibody, human IgG1)
heavy: B1 heavy with K328A, A332K
light: B1 light
B13: IL6R-BP199/IL6R-L (antibody, human IgG1)
heavy: B1 heavy with K328D, A332R
light: B1 light
notes: Anti-IL-6R human IgG1 variant; copies: 2 + 2
B14: IL6R-BP192/IL6R-L (antibody, human IgG1)
heavy: B1 heavy with H270D, P273G, Y298D, A332K
light: B1 light
notes: as for B13
B15: IL6R-BP201/IL6R-L (antibody, human IgG1)
heavy: B1 heavy with G239D, P273G, A332R
light: B1 light
notes: as for B13
B16: IL6R-BP193/IL6R-L (antibody, human IgG1)
heavy: B1 heavy with H270D, P273G, A332K
light: B1 light
notes: as for B13

Substitutions are numbered along the chain they refer to.

One assay deals with T1, FcγRIa (human, UniProt P12314 16-292, limits assumed).
T1 construct: also called FcgRIa; CD64
Nature of the assay: SPR (Biacore), FcγR over captured antibody.
T1 sequence (P12314 16-292 limits assumed): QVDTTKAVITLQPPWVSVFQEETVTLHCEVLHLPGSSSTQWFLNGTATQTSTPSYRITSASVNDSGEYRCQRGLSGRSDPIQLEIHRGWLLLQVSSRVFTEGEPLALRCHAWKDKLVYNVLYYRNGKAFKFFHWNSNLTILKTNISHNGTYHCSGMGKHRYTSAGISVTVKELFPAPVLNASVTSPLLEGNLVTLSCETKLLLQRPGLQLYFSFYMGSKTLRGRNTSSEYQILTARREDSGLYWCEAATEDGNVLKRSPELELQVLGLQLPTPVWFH
What is called Kd is the equilibrium constant for the complex coming apart. A lower Kd goes with tighter binding. B1 showed an equilibrium dissociation constant (Kd) of 6.4 nM.

In turn, B2 showed a Kd of 6.6 nM.

Molecule B3 registered a Kd of 5.3 nM.

The target of the next assay is T2, FcγRIIIa type V (human, UniProt P08637 17-208, limits assumed).
T2 construct: also called FcγRIIIaV; FcgRIIIaV
Kind of assay: SPR (Biacore), FcγR over captured antibody. In general terms: Surface plasmon resonance follows binding to a sensor surface in real time, without labels.
T2 sequence (P08637 other isoform, or with tags, fused parts or gaps limits assumed): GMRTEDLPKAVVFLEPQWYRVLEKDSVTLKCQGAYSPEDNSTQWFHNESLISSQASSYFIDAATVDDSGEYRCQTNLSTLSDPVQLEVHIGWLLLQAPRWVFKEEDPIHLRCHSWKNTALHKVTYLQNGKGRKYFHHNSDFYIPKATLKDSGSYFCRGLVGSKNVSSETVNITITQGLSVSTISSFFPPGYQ
B1: binding was characterised by a dissociation constant (Kd) of 53000 nM.

Molecule B2 showed a Kd of 69000 nM. This Kd and that of the molecule before are within 1.5-fold of each other.

On to B3, for which the Kd was determined as 110000 nM.

The target of a further assay is T3, FcγRIIb (human, UniProt P31994 43-217, limits assumed).
T3 construct: also called FcgRIIb; FcγIIB
T3 sequence: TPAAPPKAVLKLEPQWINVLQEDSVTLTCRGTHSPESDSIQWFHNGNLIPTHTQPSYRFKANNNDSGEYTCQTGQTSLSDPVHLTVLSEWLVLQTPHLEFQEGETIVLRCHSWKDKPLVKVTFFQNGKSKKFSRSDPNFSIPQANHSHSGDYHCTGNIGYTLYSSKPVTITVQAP
Kind of assay: SPR (Biacore), FcγR over captured antibody.
Molecule B1 gave a Kd of 930 nM.

For B2, the Kd was 800 nM. The Kd values of the last two molecules are within 1.5-fold of each other.

As for B3, the affinity, expressed as Kd, was 1200 nM.

A further assay concerns the target T4, FcγRIIa type H (human, UniProt P12318 36-217).
T4 construct: also called FcγRIIaH; FcγRIIH
T4 sequence: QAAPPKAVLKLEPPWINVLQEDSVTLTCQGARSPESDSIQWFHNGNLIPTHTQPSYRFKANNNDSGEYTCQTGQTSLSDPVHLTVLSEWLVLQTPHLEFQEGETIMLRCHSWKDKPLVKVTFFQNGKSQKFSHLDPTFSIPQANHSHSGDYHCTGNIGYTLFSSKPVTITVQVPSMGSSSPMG
Nature of the assay: SPR (Biacore), FcγR over captured antibody.
Regarding B1, the Kd is 86000 nM.

For B2, the affinity, expressed as Kd, was 38000 nM. Against the preceding molecule, the Kd is about 2.3-fold lower.

For the molecule B3, the Kd was 93000 nM.

The next assay deals with T5, FcγRIa (human, UniProt P12314 16-292, limits assumed).
T5 construct: SPR analyte; also called CD64
Kind of assay: SPR (Biacore), antibody captured, FcγR analyte.
T5 sequence (P12314 16-292 limits assumed): as the sequence (P12314 16-292 limits assumed) above
Text: (§1) Furthermore, KD(IIaR)/KD(IIb) and KD(IIaH)/KD(IIb) in the table respectively represent the value obtained by dividing the KD value of each variant for FcγRIIaR by the KD value of each variant for FcγRIIb, and the value obtained by dividing the KD value of each variant for FcγRIIaH by the KD value of each variant for FcγRIIb. KD(IIb) of the parent polypeptide/KD(IIb) of the altered polypeptide refers to the value obtained by dividing the KD value of the parent polypeptide for FcγRIIb by the KD value of each variant for FcγRIIb.
B4: the Kd was 120 nM.

Molecule B5 had a Kd of 37 nM. This Kd is about 3.2-fold lower than that of the molecule before.

Take B6: the Kd is 390 nM.

On to B7, for which the Kd came to 7.5 nM.

On to B8, for which the affinity, expressed as Kd, was 25 nM.

As for B9, the Kd stood at 7.3 nM.

On to B10, for which the Kd came to 63 nM.

As for B11, binding was characterised by a dissociation constant (Kd) of 89 nM. The Kd values of the last two molecules are within 1.5-fold of each other.

Molecule B12 registered a Kd of 15 nM.

Another assay has as its target T6, FcγRIIIa type V (human, UniProt P08637 17-208, limits assumed).
T6 construct: SPR analyte; allotype V158 was used here; also called FcγRIIIaV; FcγRIIIa(V)
Nature of the assay: SPR (Biacore), antibody captured, FcγR analyte.
T6 sequence (P08637 other isoform, or with tags, fused parts or gaps limits assumed): as the sequence (P08637 other isoform, or with tags, fused parts or gaps limits assumed) above
Text: as §1
Consider B4, for which the Kd came to 45000 nM.

For B5, binding was characterised by a dissociation constant (Kd) of 55000 nM.

Molecule B6 had a Kd of 57000 nM.

B7: binding was put at a Kd of 57000 nM. This lies in the double-digit micromolar range.

For B8, binding was put at a Kd of 75000 nM.

Molecule B9 yielded a Kd of 54000 nM. The Kd values of the last two molecules are within 1.5-fold of each other.

On to B10, for which the Kd is 51000 nM.

B11: binding was put at a Kd of 30000 nM.

Consider B12, for which the Kd came to 58000 nM.

The target in a further assay is T7, FcγRIIa type R (human, UniProt P12318 36-217).
T7 construct: SPR analyte; also called FcγRIIaR; FcγRIIa(R)
T7 chain: T4 sequence with H133R
Nature of the assay: SPR (Biacore), antibody captured, FcγR analyte.
Text: as §1
The molecule B4 yielded a Kd of 3400 nM.

For B5, the equilibrium dissociation constant (Kd) stood at 6900 nM.

In turn, B6 showed a Kd of 2900 nM.

For B7, the affinity, expressed as Kd, was 3200 nM.

B8 yielded a Kd of 15000 nM.

In the case of B9, the Kd was 6900 nM.

B10 had a Kd of 6400 nM. This Kd and that of the molecule before are within 1.5-fold of each other.

The molecule B11 had a Kd of 1100 nM.

The molecule B12 came in with a Kd of 8000 nM.

A further assay has as its target T8, FcγRIIb (human, UniProt P31994 43-217, limits assumed).
T8 construct: SPR analyte; also called FcγIIB; CD32
T8 sequence: T3 sequence
Kind of assay: SPR (Biacore), antibody captured, FcγR analyte.
Text: as §1
B4: the affinity, expressed as Kd, was 340 nM.

In turn, B5 gave a Kd of 790 nM.

B6 registered a Kd of 220 nM.

B7: the Kd is 160 nM.

B8 came in with a Kd of 520 nM.

Consider B9, for which the Kd was determined as 360 nM.

Regarding B10, binding was put at a Kd of 390 nM.

B11: the Kd came to 75 nM. Compared with the last molecule, the Kd is about 5.2-fold lower.

For B12, binding was put at a Kd of 370 nM.

The next assay has as its target T9, FcγRIIa type H (human, UniProt P12318 36-217).
T9 construct: SPR analyte; also called FcγRIIaH
T9 sequence: T4 sequence
Kind of assay: SPR (Biacore), antibody captured, FcγR analyte.
Text: as §1
In the case of B4, the Kd was found to be 17000 nM.

For the molecule B5, binding was put at a Kd of 36000 nM. This Kd lies about 2.1-fold higher than the previous one.

The molecule B6 yielded a Kd of 23000 nM.

For B7, the Kd was determined as 26000 nM. This Kd and that of the molecule before are within 1.5-fold of each other.

In turn, B8 had a Kd of 40000 nM.

Molecule B9 gave a Kd of 30000 nM. This Kd and that of the molecule before are within 1.5-fold of each other.

In the case of B10, binding was put at a Kd of 20000 nM.

B11 showed a Kd of approximately 7000 nM.

B12 showed a Kd of 30000 nM.

The next assay addresses T10, FcγRIIb (human, UniProt P31994 43-217, limits assumed).
T10 construct: also called FcγIIB; CD32
T10 sequence: T3 sequence
Nature of the assay: ratio of SPR KD values, parent IL6R-B3/IL6R-L.
Text: as §1
For B13, the “KD(IIb) of the parent polypeptide/KD(IIb) of altered polypeptide” value (shortened to “KD(IIb)”) turned out to be 6.3 fold.

Consider B14, for which the “KD(IIb)” value turned out to be 27.3 fold.

For B15, the “KD(IIb)” value was found to be 77.1 fold.

As for B16, the “KD(IIb)” value was 25.5 fold.

For a further assay, the target named is T11, FcγRIa (human, UniProt P12314 16-292, limits assumed).
T11 construct: also called CD64
Nature of the assay: SPR (Biacore), method of Example 14.
T11 sequence (P12314 16-292 limits assumed): as the sequence (P12314 16-292 limits assumed) above
Text: as §1
For B13, the Kd worked out at 6.4 nM.

Molecule B14 displayed a Kd of 6.6 nM. The Kd values of the last two molecules are within 1.5-fold of each other.

As to B15, the Kd stood at 51 nM.

For the molecule B16, the Kd stood at 6.3 nM.

The target of a further assay is T12, FcγRIIa type H (human, UniProt P12318 36-217).
T12 construct: also called FcγRIIaH; FcγRIIa(H)
T12 sequence: T4 sequence
Nature of the assay: SPR (Biacore), method of Example 14.
Text: as §1
Molecule B13 gave a Kd of 26000 nM.

The molecule B14 gave a Kd of 32000 nM.

B15 returned a Kd of 69000 nM.

As for B16, the Kd worked out at 25000 nM.

For a further assay, the target named is T10, FcγRIIb. Kind of assay: SPR (Biacore), method of Example 14.
Text: as §1
Regarding B13, binding was characterised by a dissociation constant (Kd) of 490 nM.

Turning to B14, binding was characterised by a dissociation constant (Kd) of 110 nM.

B15 gave a Kd of 40 nM.

B16 had a Kd of 120 nM.

The target of the next assay is T13, FcγRIIa type R (human, UniProt P12318 36-217).
T13 construct: also called FcγRIIaR; FcγRIIa(R)
T13 chain: T4 sequence with H133R
Nature of the assay: SPR (Biacore), method of Example 14.
Text: as §1
On to B14, for which binding was characterised by a dissociation constant (Kd) of 2600 nM.

In turn, B15 registered a Kd of 840 nM.

The target in the next assay is T8, FcγRIIb. Kind of assay: ratio of SPR KDs; reference IL6R-B3/IL6R-L.
Text: as §1
Regarding B4, the “KD(IIb)” value came to 9.1.

Regarding B5, the “KD(IIb)” value worked out at 3.9.

Consider B6, for which the “KD(IIb)” value was 14.3.

Consider B7, for which the “KD(IIb)” value was determined as 19.3.

In the case of B8, the “KD(IIb)” value stood at 6.

As to B9, the “KD(IIb)” value was found to be 8.6.

For B10, the “KD(IIb)” value was found to be 8.

B11: the “KD(IIb)” value came to 41.4.

As for B12, the “KD(IIb)” value amounted to 8.4.

Values taken from US20200199241A1 (Chugai, published 2020).
